From patent publication US20050118638A1 (RSR, published 2005)
Substitutions are numbered along the chain they refer to. One block for each binder: values may come before it.

How the values were obtained:
[1] = target: T1, TSH receptor (detergent solubilised TSH receptor preparation) (UniProt P16473 21-764, limits assumed); assay: 125I-TSH, TSHR coated tubes; 2 µg/ml
T1 construct: In some assays captured or labelled through MAb 4E31 F(ab)2; also called thyrotrophin receptor
Description: (§1) In particular the MAb 4E31 reactive with the TSHR C terminus (10 μg/mL F(ab)₂ preparation in 0.1 M Na₂CO₃ pH 9.2) was added to plastic tubes (Nune Maxisorp, 200 μL per tube) and coating allowed to proceed overnight 4° C. After washing and post-coating (10 mg/mL bovine serum albumin) the tubes were washed again with assay buffer (10 mM Tris-HCl pH 7.8, 50 mM NaCl, 1 mg/mL bovine serum albumin, 0.1% Triton X-100). 200 μL of a detergent solubilised TSHR preparation was then added and incubated overnight at 4° C. followed by aspiration and washing steps. Thereafter, 20 μL of “start” buffer (10 mM Tris-HCl pH 7.8, 50 mM NaCl, bovine serum albumin 1 mg/mL, 6 mM NaN₃, 1% Triton X-100) was added to the TSHR coated tubes followed by 100 μL of purified MAb IgG or patient sera and incubated at room temperature for 2 hours with gentle shaking. […] The tubes were then washed twice with 1 mL of assay buffer, aspirated and counted in a gamma counter.

[2] = target: TSH receptor of isolated porcine thyroid cells (porcine, UniProt Q8SPP9 22-764); assay: cell-based or functional assay
Chain of TSH receptor of isolated porcine thyroid cells (Q8SPP9 22-764): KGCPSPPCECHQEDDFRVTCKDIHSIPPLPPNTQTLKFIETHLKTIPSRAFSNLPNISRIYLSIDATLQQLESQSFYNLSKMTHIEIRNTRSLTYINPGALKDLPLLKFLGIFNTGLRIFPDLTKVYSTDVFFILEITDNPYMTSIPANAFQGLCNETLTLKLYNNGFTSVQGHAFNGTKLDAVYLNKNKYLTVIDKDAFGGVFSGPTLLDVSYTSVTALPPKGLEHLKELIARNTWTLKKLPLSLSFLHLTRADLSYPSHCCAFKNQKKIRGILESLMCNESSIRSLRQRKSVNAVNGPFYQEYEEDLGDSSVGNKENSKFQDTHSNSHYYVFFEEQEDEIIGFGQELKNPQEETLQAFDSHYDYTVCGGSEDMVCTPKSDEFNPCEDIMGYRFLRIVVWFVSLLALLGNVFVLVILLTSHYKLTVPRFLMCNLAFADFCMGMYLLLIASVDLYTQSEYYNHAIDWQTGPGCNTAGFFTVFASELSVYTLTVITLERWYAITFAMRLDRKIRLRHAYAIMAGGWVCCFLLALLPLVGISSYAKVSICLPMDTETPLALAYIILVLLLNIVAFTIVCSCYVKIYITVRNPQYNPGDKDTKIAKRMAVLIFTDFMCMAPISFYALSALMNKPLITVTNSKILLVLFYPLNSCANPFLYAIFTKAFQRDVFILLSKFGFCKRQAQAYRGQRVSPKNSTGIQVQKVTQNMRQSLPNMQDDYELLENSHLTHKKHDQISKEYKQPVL

[3] = target: human TSHR expressed on Chinese hamster ovary (CHO) cells (human, UniProt P16473 21-764); assay: cell-based or functional assay
Chain of human TSHR expressed on Chinese hamster ovary (CHO) cells (P16473 21-764): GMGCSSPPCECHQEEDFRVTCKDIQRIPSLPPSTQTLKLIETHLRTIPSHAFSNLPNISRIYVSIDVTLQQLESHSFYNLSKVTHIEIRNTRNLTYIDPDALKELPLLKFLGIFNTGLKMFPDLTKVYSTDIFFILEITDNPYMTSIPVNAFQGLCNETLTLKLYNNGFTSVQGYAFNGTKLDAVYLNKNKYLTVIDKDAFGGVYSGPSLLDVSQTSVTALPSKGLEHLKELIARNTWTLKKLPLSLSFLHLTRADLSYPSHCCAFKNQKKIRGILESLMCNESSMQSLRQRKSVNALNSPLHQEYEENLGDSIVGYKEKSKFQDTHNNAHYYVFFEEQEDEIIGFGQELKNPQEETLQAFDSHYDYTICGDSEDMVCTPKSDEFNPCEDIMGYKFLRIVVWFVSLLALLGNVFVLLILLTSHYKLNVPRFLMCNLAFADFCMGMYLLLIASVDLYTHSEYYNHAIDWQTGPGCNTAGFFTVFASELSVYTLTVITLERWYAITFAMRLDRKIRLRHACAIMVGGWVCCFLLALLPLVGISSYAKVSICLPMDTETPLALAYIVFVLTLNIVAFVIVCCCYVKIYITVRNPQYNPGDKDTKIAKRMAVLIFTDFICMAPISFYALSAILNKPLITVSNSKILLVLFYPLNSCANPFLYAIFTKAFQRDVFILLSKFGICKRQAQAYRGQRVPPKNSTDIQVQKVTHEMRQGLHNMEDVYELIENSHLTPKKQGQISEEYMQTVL

[4] = target: T1, TSH receptor (detergent solubilised TSH …); assay: solubilised TSHR, PEG method; IgG 100 µg/ml; competitor 125I-16E5 Fab
[5] = target: T1, TSH receptor (detergent solubilised TSH …); assay: 125I-TSH, TSHR coated tubes; 20 µg/ml
Description: as §1

[6] = target: T1, TSH receptor (detergent solubilised TSH …); assay: 125I-TSH, TSHR coated tubes; tested at 10 µg/ml
Description: as §1

T1 sequence (P16473 21-764 limits assumed): as the sequence (P16473 21-764) above

B1: 2B4 IgG (antibody, V domains shown, not shown: a dimerising Fc or GST)
VH: DVQLQQSGTVLARPGASVRMSCKASGYSFTRYWIHWLKQRPGQGLEWIGAIFPGNRDTSYNQRFKGKAEVTAVTSASTAYLDLSSLTNEDSAVYYCTRWPYYGSIYVNFDYWGQGTTLTVSS
VL: DIVMTQSPLSLPVSLGDQASISCRTSQNLVHRNGNTYLHWYLQKPGQSPKLLIYKISNRFSGVPDRFSGSGSGTDFTLKISRVEAEDLGVYFCSQGTHVPPTFGGGTKLEIKR
notes: mouse monoclonal IgG; also called 2B4 MAb
- % inhibition of TSH binding [1]: 69.9%
- Stimulation (%) of cyclic AMP, isolated porcine thyroid cells; 2 µg/ml [2]: 116%
- Stimulation (%) of cyclic AMP, isolated porcine thyroid cells; 20 µg/ml [2]: 100%
- Stimulation (%) of cyclic AMP, CHO cells expressing human TSHR; 20 µg/ml, diluted 1:10 [3]: 111%

B2: 3B3 IgG (antibody, V domains shown)
VH: DVQLQQPGAELVKPGASVKLSCTTSGVNIKDTYMHWMKQRPEQGLEWIGRIDPANGNTKYDPKFRGKATITADTSSNTVYVQLRSLTSEDTAVYYCAYDGYWGQGTLVTVSA
VL: NIVMTQTPASLAVSLGQRATISCRASESVDSYGNNFMHWYQQKPGQSPRLLIYRASNLESGIPARFSGSGSRTDFTLTTNPVEADDVATYYCQQSHKDPLTFGAGTKLELK
- Stimulation (%) of cyclic AMP, isolated porcine thyroid cells; 20 µg/ml [2]: 37%
- Stimulation (%) of cyclic AMP, isolated porcine thyroid cells; 200 µg/ml [2]: 34%

B3: 3B3 Fab (Fab, V domains shown)
VH: B2 VH
VL: NIVMTQTPASLAVSLGQRATISCRASESVDSYGNNFMHWYQQKPGQSPRLLIYRASNLESGIPARFSGSGSRTDFTLTTNPVEADDVATYYCQQSHKDPLTFGAGTKLELKR
- Stimulation (%) of cyclic AMP, isolated porcine thyroid cells; 200 µg/ml [2]: 42%

B4: 4D7 IgG (antibody, V domains shown, not shown: a dimerising Fc or GST)
VH: DVQLKHSGPELVKPGASMKISCKASGYSFTGYTMNWVKQSHGKNLEWIGLINPYTGGTNYNQKFKGKAKLTVDKSSSTAFMELLSLTSEDSAVYYCARDGNLDYWGQGTTLTVSS
VL: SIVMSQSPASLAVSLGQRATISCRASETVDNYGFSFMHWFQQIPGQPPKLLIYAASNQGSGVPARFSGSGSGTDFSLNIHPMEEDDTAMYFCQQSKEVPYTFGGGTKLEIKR
notes: mouse monoclonal IgG; also called Mab 4D7
- % inhibition of 125I-16E5 Fab binding [4]: 24.2%
- Stimulation (%) of cyclic AMP, isolated porcine thyroid cells; 20 µg/ml [2]: 31%
- Stimulation (%) of cyclic AMP, isolated porcine thyroid cells; 200 µg/ml [2]: 259%

B5: 3C7 IgG (antibody, V domains shown, not shown: a dimerising Fc or GST)
VH: B4 VH with E46D, T55N, N59S, N61D, K69T, F80Y, N101L, L102M, T110S, L111V
VL: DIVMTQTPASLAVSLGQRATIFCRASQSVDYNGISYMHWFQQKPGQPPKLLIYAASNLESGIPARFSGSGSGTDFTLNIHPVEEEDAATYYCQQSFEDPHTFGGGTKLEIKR
notes: mouse monoclonal IgG
- % inhibition of 125I-16E5 Fab binding [4]: 17%

B8: 14D3 IgG (antibody, V domains shown, not shown: a dimerising Fc or GST)
VH: DVQMQQPGPELVKPGASLKMSCKASGYSFTGYNMHWVKQSHGKSLEWIGYIDPYSGATSYNQKFEGKATLTVDKSSSTAYMQLNSLTSEDSAVYYCARRWDWDPYAMDYWGQGTSVTVSS
VL: NILMTQSPAILSVSPGERVSFACRASQSIGTSIHWYQQRTNGSPRLLIKYASESISGIPSRFSGSGSGTDFTLSINSVESEDIADYYCQQTNRWPLTFGAGTKLELKR
notes: mouse monoclonal IgG; also called MAb 14D3
- % inhibition of 125I-16E5 Fab binding [4]: 67.6%
- % inhibition of TSH binding [5]: 76.4%
- % inhibition of TSH binding [1]: 61%
- Stimulation (%) of cyclic AMP, isolated porcine thyroid cells; 2 µg/ml [2]: 323%
- Stimulation (%) of cyclic AMP, isolated porcine thyroid cells; 20 µg/ml [2]: 351%
- Stimulation (%) of cyclic AMP, isolated porcine thyroid cells; 200 µg/ml [2]: 557%
- Stimulation (%) of cyclic AMP, CHO cells expressing human TSHR; 20 µg/ml, diluted 1:10 [3]: 908%

B11: 14D3 Fab (Fab, V domains shown)
VH: B8 VH
VL: B8 VL
notes: Fab of the mouse MAb
- % inhibition of TSH binding [6]: 64%
- Stimulation (%) of cyclic AMP, isolated porcine thyroid cells; 200 µg/ml [2]: 648%

Second part, the binder after the results:

- % inhibition of 125I-16E5 Fab binding [4]: 70.4%
- % inhibition of TSH binding [5]: 83.3%
- % inhibition of TSH binding [1]: 73.6%
- Stimulation (%) of cyclic AMP, isolated porcine thyroid cells; 2 µg/ml [2]: 269%
- Stimulation (%) of cyclic AMP, isolated porcine thyroid cells; 20 µg/ml [2]: 332%
- Stimulation (%) of cyclic AMP, isolated porcine thyroid cells; 200 µg/ml [2]: 466%
- Stimulation (%) of cyclic AMP, CHO cells expressing human TSHR; 20 µg/ml, diluted 1:10 [3]: 850%
B6: 16E5 IgG (antibody, V domains shown, not shown: a dimerising Fc or GST)
VH: B8 VH with M4L, Q5V, P7S, L18V, S55N, G66D
VL: B8 VL with N1D, M4L, A22S, P59F, S74T, T91S
notes: mouse monoclonal IgG; also called MAb 16E5

- % inhibition of 125I-16E5 Fab binding [4]: 69.2%
- % inhibition of TSH binding [5]: 81.3%
- % inhibition of TSH binding [1]: 73.7%
- Stimulation (%) of cyclic AMP, isolated porcine thyroid cells; 2 µg/ml [2]: 134%
- Stimulation (%) of cyclic AMP, isolated porcine thyroid cells; 20 µg/ml [2]: 207%
- Stimulation (%) of cyclic AMP, isolated porcine thyroid cells; 200 µg/ml [2]: 377%
B7: 17D2 IgG (antibody, V domains shown, not shown: a dimerising Fc or GST)
VH: B8 VH with M4I, P7S, L18V, G31A, S40T, N61H, E65K, Q82R
VL: B8 VL with N1S, I2V, L3E, T5S, V19I, A22S, E53A, T91S, R93S
notes: mouse monoclonal IgG

- % inhibition of TSH binding [6]: 45%
- Stimulation (%) of cyclic AMP, isolated porcine thyroid cells; 200 µg/ml [2]: 274%
B9: 17D2 Fab (Fab, V domains shown)
VH: B8 VH with M4I, P7S, L18V, G31A, S40T, N61H, E65K, Q82R
VL: B8 VL with N1S, I2V, L3E, T5S, V19I, A22S, E53A, T91S, R93S
notes: Fab of the mouse MAb

- % inhibition of TSH binding [6]: 53%
- Stimulation (%) of cyclic AMP, isolated porcine thyroid cells; 200 µg/ml [2]: 425%
B10: 16E5 Fab (Fab, V domains shown)
VH: B8 VH with M4L, Q5V, P7S, L18V, S55N, G66D
VL: B8 VL with N1D, M4L, A22S, P59F, S74T, T91S
notes: papain Fab of the mouse MAb
